Test results taken from patent US20210214435A1 (MorphoSys, published 2021).

T1: mouse GPVI on the cell surface of mouse platelets (mouse, UniProt P0C191 22-313)
T1 construct: whole, on cells; also called GPVI on murine platelets
T1 sequence (looked up): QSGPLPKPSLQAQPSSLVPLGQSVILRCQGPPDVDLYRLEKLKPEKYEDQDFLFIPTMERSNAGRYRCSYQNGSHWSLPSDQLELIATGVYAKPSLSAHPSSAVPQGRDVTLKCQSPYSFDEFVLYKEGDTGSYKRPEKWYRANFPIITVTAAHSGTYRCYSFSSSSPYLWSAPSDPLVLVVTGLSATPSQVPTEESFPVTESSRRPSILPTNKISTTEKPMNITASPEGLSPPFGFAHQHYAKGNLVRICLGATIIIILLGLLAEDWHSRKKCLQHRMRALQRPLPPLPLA

B1: Fab #1 comprising a modified heavy chain constant region (Fab, V domains shown)
VH: QVQLVQSGAEVKKPGASVKVSCKASGYTFTSHYMHWVRQAPGQGLEWMGLIEPSEGETEYAQRFQGRVTMTRDTSTSTVYMELSSLRSEDTAVYYCARDSSRSYPLGFDIWGQGTLVTVSS
VL: QSVLTQPPSVSAAPGQKVTISCSGSSSNIGNNYVSWYQQLPGTAPKLLIYDNNKRPSGIPDRFSGSKSGTSATLGITGLQTEDEADYYCAAWDFRSSRWVFGGGTKLTVLG
notes: Human Fab from the Ylanthia library; produced in HKB11 cells; also called Fab #1 mod; HC
B2: Fab #4 comprising a modified heavy chain constant region (Fab, V domains shown)
VH: QVQLVQSGAEVKKPGASVKVSCKASGGAFTSSYMHWVRQAPGQGLEWMGIIEPTGASTLYAQRFQGRVTMTRDTSTSTVYMELSSLRSEDTAVYYCARTGIALPLGFDLWGQGTLVTVSS
VL: QSVLTQPPSVSAAPGQKVTISCSGSSSNIGNNYVSWYQQLPGTAPKLLIYDNNKRPSGIPDRFSGSKSGTSATLGITGLQTEDEADYYCAAWSTRFRWVFGGGTKLTVLG
notes: Human Fab from the Ylanthia library; produced in HKB11 cells; also called Fab #4 mod; HC
B3: Fab #2 comprising a modified heavy chain constant region (Fab, V domains shown)
VH: QVQLVESGGGLVKPGGSLRLSCAASGFSFSDHYMSWIRQAPGKGLEWVSSVGSEGKFIDYAASVKGRFTISRDNAKNSLYLQMNSLRAEDTAVYYCARHYREFRWHYYYFDYWGQGTLVTVSS
VL: QSVLTQPPSVSGAPGQRVTISCTGSSSNIGAGYDVHWYQQLPGTAPKLLIYGNSNRPSGVPDRFSGSKSGTSASLAITGLQAEDEADYYCQSHDLGAHVWVFGGGTKLTVLG
notes: Human Fab from the Ylanthia library; produced in HKB11 cells; also called Fab #2 mod; HC
B4: Fab #3 comprising a modified heavy chain constant region (Fab, V domains shown)
VH: QVQLVESGGGLVKPGGSLRLSCAASGFSFGDYYVSWIRQAPGKGLEWVSAIGGSGSAVQYAESVKGRFTISRDNAKNSLYLQMNSLRAEDTAVYYCARHYREFRWHYYYFDYWGQGTLVTVSS
VL: B3 VL
notes: Human Fab from the Ylanthia library; produced in HKB11 cells; also called Fab #3 mod; HC
B5: Reference Control Antibody RefFab #1 (humanized GPVI antibody of WO2011073954A2, SANOFI) (Fab, V domains shown)
VH: EVQLLESGPGLVAPSGSLSITCTVSGFSLTGYGVNWVRQPPGKGLEWLGMIWGDGSTDYQSTLKSRLSISKDNSKSQVFLKMNSLRTDDTARYYCARDLPMDYWGLGTSVTVSS
VL: DIQMTQSPSSLSASVGGRVTITCKASQDINKYIAWYQHKPGKGPSLLIHYTSTLQPGVPSRFSGSGSGRDYSFSISNLQPEDIATYYCLQYANLLTFGGGTKLEIKR
notes: Cloned into mammalian Fab expression vectors; a glycine-serine linker (G4S)2 was added to the C-terminus of the Fab heavy chain

Assays:
[1] = biological target: T2, mouse GPVI extracellular domain fused at its C-terminus to human IgG1 Fc (GPVI-Fc) (mouse; human); test: Competition ELISA (MSD): mouse GPVI-Fc preincubated with Fab, then on coated rat-tail collagen (competitor)
T2 construct: also called mGPVI; mouse GPVI-Fc
Experimental: (§1) 1 or 10 μg/ml of recombinant GPVI collagen substrate (crosslinked collagen-related peptide (CRP-XL (Anaspec, Inc.), rat-tail collagen (Enzo Life Sciences) or VitroCol (Advanced BioMatrix, Inc.) was coated on a MSD-plate over night at 4° C., washed with PBST, blocked for 1 h at RT with PBS supplemented with 0.05% Tween-20 and 3% skim milk powder, and subsequently washed again with PBST. Purified recombinant GPVI antigens (human, cynomolgus monkey or mouse GPVI as prepared in Example 1) diluted in PBS and varying concentrations of Fab (comprising a modified heavy chain constant region) diluted in PBS (final concentration range 200-0.3 μg/ml) were incubated in a polypropylene plate for 30 min at RT. Fab/GPVI-Fc mixture was added to coated collagen substrate for 1 h at RT. After washing with PBST, bound GPVI form different species was detected using an ECL-conjugated detection antibody directed against human Fc (Jackson Immuno Research) for 1 h at RT. MSD read buffer (Meso Scale Discovery) was added prior to readout in a Sector Imager6000 (Meso Scale Discovery).

[2] = biological target: T1, mouse GPVI on the cell surface of mouse …; test: FACS on washed murine platelets from PRP (one exemplary donor), PE-conjugated detection antibody, median fluorescence
Experimental: (§2) Platelet-rich plasma (PRP) from up to 4 donors was prepared by centrifugation of citrated whole blood for 15 min at 150×g without brake. The resulting supernatant was transferred as PRP into a new sample tube without disturbing the underlying leukocyte-rich interphase. After careful washing in Tyrode's buffer supplemented with Prostacyclin 1₂ (PGI2; Epoprostenol-Rotexmedica), platelets were resuspended in Tyrode's/PGI2 and transferred to 96 well V-bottom microtiter plates. Platelets were spiked with Fab (comprising a modified heavy chain constant region) diluted to final concentrations between 0.015-30 μg/ml in Tyrode's/PGI2 and incubated for 30 min at RT. Platelets were carefully washed to remove non-bound Fab and then incubated for 30 min at RT with a Phycoerythrine (PE)-conjugated detection antibody (Jackson ImmunoResearch). After incubation for 30 min at RT, platelets were analyzed by flow cytometry in a FACS Canto II (Becton Dickinson). In the case of Fab directly conjugated with PE (FIG. 1D), incubation with detection antibody was omitted. Data was evaluated using FACS Diva software (Becton Dickinson). EC50 values were calculated using Prism 5 software (GraphPad).

[3] = biological target: T3, human GPVI-1A extracellular domain fused at its C-terminus to human IgG1 Fc (GPVI-Fc) (human); test: ELISA, coated GPVI-Fc, Fab titrated
T3 construct: also called hGPVI-1a; hGPVI
Experimental: (§3) 0.5-2 nM of recombinant GPVI-Fc-fusion proteins (as described in Example 1) were coated overnight on Maxisorp microtiter plates at 4° C. […] Following washing with PBST, Fabs (comprising a modified heavy chain constant region) serially diluted to concentrations in the range of 600 nM to 1 pM in PBST with 5% skim milk powder (MPBST) were added for 1 h at RT. Plates were washed with PBST. Bound Fab was detected using an alkaline phosphatase-conjugated detection antibody (Jackson Immuno Research) diluted in MPBST and directed against human F(ab′)2 fragment. After washing with TBS supplemented with 0.05% Tween-20 (TBST), AttoPhos substrate (Roche) diluted in ddH2O was added and fluorescence intensity measured at a Tecan Infinite 200Pro reader. EC50 values were calculated using Prism 5 software (GraphPad).

[4] = biological target: T4, human GPVI-1B extracellular domain fused at its C-terminus to human IgG1 Fc (GPVI-Fc) (human); test: ELISA, coated GPVI-Fc, Fab titrated
T4 construct: Low frequency haplotype 'b'; also called hGPVI-lb; hGPVI-1b
Experimental: as §3

[5] = biological target: T5, human GPVI-2A extracellular domain fused at its C-terminus to human IgG1 Fc (GPVI-Fc) (human); test: ELISA, coated GPVI-Fc, Fab titrated
T5 construct: Isoform 2, haplotype 'a'; also called hGPVI-2a
Experimental: as §3

[6] = biological target: T6, cynomolgus monkey GPVI extracellular domain fused at its C-terminus to human IgG1 Fc (GPVI-Fc) (cynomolgus monkey; human); test: ELISA, coated GPVI-Fc, Fab titrated
T6 construct: also called cyGPVI-2; cyGPVI
Experimental: as §3

[7] = biological target: T7, rat GPVI extracellular domain fused at its C-terminus to human IgG1 Fc (GPVI-Fc) (rat; human); test: ELISA, coated GPVI-Fc, Fab titrated
T7 construct: also called rGPVI
Experimental: as §3

[8] = biological target: T8, cynomolgus monkey GPVI on the cell surface of cynomolgus monkey platelets (cynomolgus monkey); test: FACS on washed cynomolgus platelets from PRP (one donor), PE-conjugated detection antibody, median fluorescence
T8 construct: whole, on cells; also called GPVI on cynomolgus monkey platelets
Experimental: as §2

[9] = biological target: T2, mouse GPVI extracellular domain fused …; test: Competition ELISA (MSD): mouse GPVI-Fc preincubated with Fab, then on coated CRP-XL (competitor)
Experimental: as §1

T3 sequence (chain, as listed by the source limits assumed): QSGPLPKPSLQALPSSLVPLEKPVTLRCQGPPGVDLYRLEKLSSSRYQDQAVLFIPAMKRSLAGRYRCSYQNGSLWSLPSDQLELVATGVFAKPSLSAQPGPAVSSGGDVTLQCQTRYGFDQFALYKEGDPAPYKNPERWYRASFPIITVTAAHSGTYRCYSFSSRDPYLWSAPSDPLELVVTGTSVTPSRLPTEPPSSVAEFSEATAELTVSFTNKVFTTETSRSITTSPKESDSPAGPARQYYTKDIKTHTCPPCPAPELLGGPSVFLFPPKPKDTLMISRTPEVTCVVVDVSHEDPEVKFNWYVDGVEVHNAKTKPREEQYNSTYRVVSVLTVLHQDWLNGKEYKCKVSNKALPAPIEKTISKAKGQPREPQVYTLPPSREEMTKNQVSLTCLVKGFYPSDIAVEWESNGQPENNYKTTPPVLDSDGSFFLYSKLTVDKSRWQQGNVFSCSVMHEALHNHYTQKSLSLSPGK
T4 sequence (chain, as listed by the source limits assumed): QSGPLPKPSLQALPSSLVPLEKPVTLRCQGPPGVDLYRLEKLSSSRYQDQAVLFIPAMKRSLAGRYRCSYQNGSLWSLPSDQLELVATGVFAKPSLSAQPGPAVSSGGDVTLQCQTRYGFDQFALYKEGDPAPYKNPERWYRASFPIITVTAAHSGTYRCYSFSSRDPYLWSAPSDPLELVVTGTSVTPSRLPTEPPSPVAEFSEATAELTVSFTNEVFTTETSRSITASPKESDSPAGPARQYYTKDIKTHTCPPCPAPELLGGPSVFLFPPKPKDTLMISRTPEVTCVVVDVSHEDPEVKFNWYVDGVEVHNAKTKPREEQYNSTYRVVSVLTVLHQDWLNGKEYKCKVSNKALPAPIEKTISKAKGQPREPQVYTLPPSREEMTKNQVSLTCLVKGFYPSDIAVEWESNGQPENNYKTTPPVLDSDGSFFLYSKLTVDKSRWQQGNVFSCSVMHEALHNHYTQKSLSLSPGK
T5 sequence (chain, as listed by the source limits assumed): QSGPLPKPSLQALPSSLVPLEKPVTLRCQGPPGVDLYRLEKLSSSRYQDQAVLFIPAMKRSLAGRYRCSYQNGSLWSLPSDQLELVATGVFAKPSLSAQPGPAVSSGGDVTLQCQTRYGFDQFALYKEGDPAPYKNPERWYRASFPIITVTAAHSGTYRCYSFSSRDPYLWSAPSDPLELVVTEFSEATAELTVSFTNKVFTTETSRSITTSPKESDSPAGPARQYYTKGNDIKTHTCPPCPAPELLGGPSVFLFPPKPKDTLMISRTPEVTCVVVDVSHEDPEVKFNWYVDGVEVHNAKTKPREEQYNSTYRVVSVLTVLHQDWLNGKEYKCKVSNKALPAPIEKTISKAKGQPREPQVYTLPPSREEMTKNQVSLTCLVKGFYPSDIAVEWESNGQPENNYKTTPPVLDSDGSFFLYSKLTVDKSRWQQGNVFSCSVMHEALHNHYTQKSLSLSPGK
T6 sequence (chain, as listed by the source limits assumed): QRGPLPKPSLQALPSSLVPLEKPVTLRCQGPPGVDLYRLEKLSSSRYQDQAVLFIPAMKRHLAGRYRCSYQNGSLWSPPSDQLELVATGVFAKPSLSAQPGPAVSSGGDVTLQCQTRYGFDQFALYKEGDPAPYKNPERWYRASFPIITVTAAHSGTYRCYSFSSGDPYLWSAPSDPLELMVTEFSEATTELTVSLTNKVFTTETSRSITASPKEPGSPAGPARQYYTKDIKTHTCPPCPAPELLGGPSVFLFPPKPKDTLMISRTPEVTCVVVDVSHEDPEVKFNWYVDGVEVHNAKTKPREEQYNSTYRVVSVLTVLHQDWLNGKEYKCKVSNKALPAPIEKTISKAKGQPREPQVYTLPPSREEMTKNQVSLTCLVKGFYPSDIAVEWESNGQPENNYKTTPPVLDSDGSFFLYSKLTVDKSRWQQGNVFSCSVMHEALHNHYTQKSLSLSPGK
T2 sequence (chain, as listed by the source limits assumed): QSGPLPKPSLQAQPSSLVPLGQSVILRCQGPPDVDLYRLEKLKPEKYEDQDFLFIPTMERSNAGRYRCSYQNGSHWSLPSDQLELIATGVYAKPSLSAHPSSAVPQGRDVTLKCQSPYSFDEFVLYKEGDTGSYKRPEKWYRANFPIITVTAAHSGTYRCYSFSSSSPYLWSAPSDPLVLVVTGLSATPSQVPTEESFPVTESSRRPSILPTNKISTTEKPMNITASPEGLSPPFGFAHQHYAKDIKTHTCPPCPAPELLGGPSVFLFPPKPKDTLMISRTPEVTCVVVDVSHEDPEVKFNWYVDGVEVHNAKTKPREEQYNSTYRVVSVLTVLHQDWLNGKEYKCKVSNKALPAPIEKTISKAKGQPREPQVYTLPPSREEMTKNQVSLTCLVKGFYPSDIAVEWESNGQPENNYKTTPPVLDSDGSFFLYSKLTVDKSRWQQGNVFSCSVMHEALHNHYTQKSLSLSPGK
T7 sequence (chain, as listed by the source limits assumed): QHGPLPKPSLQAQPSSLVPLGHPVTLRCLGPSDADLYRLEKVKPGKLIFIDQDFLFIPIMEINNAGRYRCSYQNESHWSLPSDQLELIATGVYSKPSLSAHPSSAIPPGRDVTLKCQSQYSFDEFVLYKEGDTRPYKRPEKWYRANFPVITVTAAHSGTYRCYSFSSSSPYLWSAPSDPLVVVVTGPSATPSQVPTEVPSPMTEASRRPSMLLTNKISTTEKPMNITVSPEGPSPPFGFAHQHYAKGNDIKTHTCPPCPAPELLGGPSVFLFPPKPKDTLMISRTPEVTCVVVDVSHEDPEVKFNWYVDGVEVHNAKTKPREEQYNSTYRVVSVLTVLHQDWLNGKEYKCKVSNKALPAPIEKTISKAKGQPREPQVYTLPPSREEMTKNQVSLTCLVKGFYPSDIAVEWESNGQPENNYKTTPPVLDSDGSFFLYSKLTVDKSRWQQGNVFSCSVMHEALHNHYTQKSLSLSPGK

Row | Binder | IC50 [1] [pM] | Max. inhibition at 200 nM Fab [%] [1] [%] | EC50 (read off the curve) [2] [µg/mL] | EC50 [3] [pM] | EC50 [4] [pM] | EC50 [5] [pM] | EC50 [6] [pM] | binding result [7] | EC50 (read off the curve) [8] [µg/mL] | IC50 [9] [pM] | Max. inhibition at 200 nM Fab [%] [9] [%] | EC50 [7] [pM]
1 | B1 | 17200 | 89 | ~3 | 460 | 660 | 930 | 530 | binds | ~0.4 | 26400 | 77 | –
2 | B2 | – | 87 | ~0.2 | 410 | 480 | 740 | 500 | – | ~0.7 | 10600 | 67 | 9320
3 | B3 | 5700 | 99 | ~0.5 | 410 | 450 | 650 | 420 | – | ~0.6 | 12000 | 99 | 53100
4 | B4 | 5300 | 99 | ~0.3 | 350 | 390 | 480 | 370 | – | ~0.6 | 8100 | 100 | 9650
5 | B5 | – | – | – | 930 | 1000 | 1430 | 580 | – | ~0.5 | – | – | –
